Series [1] can be described thus: in vivo. Details: species or system mouse. Conditions: female, NMRI, mouse, in vivo, iv, 45 pmol, total radioactivity. As to the method: (§1) The animal experiments were planned and performed in accordance with the national legislation on the protection of laboratory animals, and the study plans were approved by the local committee for animal research ethics. Groups of 3-4 mice were used per data point. Biodistribution studies were performed on female immunocompetent NMRI mice (weight: 30 ± 2 g), female Balb/c nu/nu (inoculated 10 million PC-3 cells/mouse 21 days before the experiment, weight 17 ± 2 g), and male inbred immunodeficient NOD-SCID mice (5 million PC-3 cells/mouse, 35 days before the experiment, 31 ± 2 g). […] The injected radioactivity was adjusted to 30 kBq per animal. […] The mice were euthanized at 30 min pi by intraperitoneal injection of Ketalar-Rompun solution (10 mg/mL Ketalar and 1 mg/mL Rompun; 20 μL/g body weight). Blood samples were collected by cardiac puncture. Lung, liver, spleen, pancreas, stomach, small intestines, kidneys, muscle, bone, and the rest of intestines with their content were collected. The organs were weighed and their radioactivity content was measured in a gamma-counter. The data were corrected for background radiation. The organ uptake values were expressed as a percentage of injected dose per gram of tissue (% ID/g), except for the gastrointestinal tract and the remaining carcass, which were calculated as % ID per whole sample.

Another series deals with murine GRPRs. Kind of series: in vivo. Details: species or system mouse. Conditions: female NMRI mice, 30 min pi, 45 pmol, coinjected 20 nmol unlabeled peptide. As to the method: as §1
The next series has as its system PC-3 cells. Kind of series: Cellular processing (binding and internalization, acid wash) by PC-3 cells. Format: cell-based, human. Conditions: 1 nM, 37°C, 24 h incubation, 3 dishes. The protocol:
The cells were cultured in RPMI-1640 media supplemented with 10% fetal calf serum, PEST (penicillin 100 IU/mL, streptomycin 100 μg/mL), and 2 mM L-glutamine (all from Biochrom AG, Berlin, Germany). This medium is referred to as complete medium in the text. Trypsin-EDTA (0.05% trypsin, 0.02% EDTA in buffer; Biochrom AG) was used for cell detachment. All in vitro experiments were performed in triplicate. […] At predetermined time points (1, 2, 4, 8, and 24 h after the start of incubation) the medium from 3 dishes was discarded and the cells were washed with ice-cold serum-free medium. The membrane-bound and internalized radioactivity were collected using the acid wash method described earlier.

Series [2] can be described thus: Labeling stability: EDTA challenge and PBS, analysed by ITLC. Type of series: physicochemical. The settings on record: chemical (label) stability, ITLC eluted with citric acid 0.2 M pH 2.0, average ± SD. The protocol:
Radiolabeling with ^57Co was performed using 3.8–10 nmol (aq. 1 nmol/μL) of NOTA-PEG2-RM26 buffered with 80 μL ammonium acetate (0.2 M, pH 5.5). The mixture was incubated with ^57Co cobalt chloride (10–50 MBq) for 30 min at 60°C. For ^55Co labeling, 1.3 nmol of NOTA-PEG2-RM26 buffered with 80 μL ammonium acetate (0.2 M, pH 5.5) was heated by microwave irradiation for 1 min at 850 W in a sealed vial using a conventional microwave oven (Samsung MW82N-B). […] Labeling yield, radiochemical purity, and in vitro stability were analyzed using instant thin-layer chromatography (ITLC) strips (Agilent Technologies) eluted with citric acid (0.2 M, pH 2.0). In this system, free ^57/55Co migrates with the eluent front (Rf = 1.0) and the radiolabeled construct stays on the application point (Rf = 0.0). The system was previously validated by sodium dodecyl sulfate polyacrylamide gel electrophoresis (SDS-PAGE) and radio-HPLC [7, 8].

Series [3] can be described thus: in vivo. Conditions: male, NOD-SCID, mouse, iv, 16.8 pmol, total radioactivity. As to the method: (§2) The animal experiments were planned and performed in accordance with the national legislation on the protection of laboratory animals, and the study plans were approved by the local committee for animal research ethics. Groups of 3-4 mice were used per data point. Biodistribution studies were performed on female immunocompetent NMRI mice (weight: 30 ± 2 g), female Balb/c nu/nu (inoculated 10 million PC-3 cells/mouse 21 days before the experiment, weight 17 ± 2 g), and male inbred immunodeficient NOD-SCID mice (5 million PC-3 cells/mouse, 35 days before the experiment, 31 ± 2 g).
(§3) Tumor targeting specificity and biodistribution over time were studied on PC-3 xenografted female Balb/c nu/nu and male NOD-SCID mice, respectively. […] An additional group of animals was coinjected with an excess of nonlabeled peptide (20 nmol). The mice were sacrificed at 3 h pi by intraperitoneal injection of Ketalar-Rompun solution (10 mg/mL Ketalar and 1 mg/mL Rompun; 20 μL/g body weight). […] The mice were euthanized at 3 and 24 h pi by cervical dislocation. Tumors, blood, and other organs of interest were collected, weighed, and measured on radioactivity content in a gamma-counter. […] The organ uptake values were expressed as a percentage of injected dose per gram of tissue (% ID/g), except for the gastrointestinal tract and the remaining carcass, which were calculated as % ID per whole sample.

A further series concerns PC-3 xenografts. Put plainly: In vivo binding specificity in PC-3 xenografted Balb/c nu/nu mice. Set-up: species or system mouse. The settings on record: female Balb/c nu/nu mice with subcutaneous PC-3 tumors, 3 h pi, 45 pmol, coinjected 20 nmol. The protocol:
as §2, §3

The structures appear in SMILES notation.

Turning to `CC(C)C[C@H](NC(=O)C[C@H](O)[C@H](CC(C)C)NC(=O)[C@H](Cc1c[nH]cn1)NC(=O)CNC(=O)[C@@H](NC(=O)[C@H](C)NC(=O)[C@H](Cc1c[nH]c2ccccc12)NC(=O)[C@H](CCC(N)=O)NC(=O)[C@@H](Cc1ccccc1)NC(=O)COCCOCCNC(=O)CN1CCN(CC(=O)O)CCN(CC(=O)O)CC1)C(C)C)C(N)=O` [^57Co-NOTA-PEG2-RM26], the tissue uptake (in general, the share of the injected amount in each gram of the tissue) at 0.5 h in the series “in vivo [1]” (kidney retention) worked out at 6 ± 2 %ID/g; in the series “in vivo [1]” (liver uptake), 0.65 ± 0.05 %ID/g. Further, the “Accumulated radioactivity in receptor-positive organs (pancreas, small intestine, stomach) on coinjection of unlabeled peptide” value with murine GRPRs is given as “significantly lower”. Besides, in the series with PC-3 cells, the “Internalized fraction of cell-associated radioactivity” value is 12%. In series [2] (1000-fold molar excess of EDTA disodium salt, 1 h, room temperature), the “Release in the presence of excess EDTA” value amounted to 0.7 ± 0.2%. For the same compound, the “Release in PBS” value in series [2] (PBS, 1 h incubation at room temperature) is listed as 0.07 ± 0.11%. Also, in “in vivo [3]”, the tissue uptake at 3 h turned out to be 0.05 ± 0.02 %ID/g. Also, the “Tumor uptake and uptake in GRPR-expressing organs on coinjection of excess unlabeled peptide” value in the series with PC-3 xenografts is “inhibited”.

(Values after publication PMC5612608 (Contrast Media & Molecular Imaging, 2017).)
